Test results published in PMC8855868.

Target: MeCP2 (human, UniProt P51608 1-486)
Experiment: MST

Sequence of MeCP2 (P51608 whole entry): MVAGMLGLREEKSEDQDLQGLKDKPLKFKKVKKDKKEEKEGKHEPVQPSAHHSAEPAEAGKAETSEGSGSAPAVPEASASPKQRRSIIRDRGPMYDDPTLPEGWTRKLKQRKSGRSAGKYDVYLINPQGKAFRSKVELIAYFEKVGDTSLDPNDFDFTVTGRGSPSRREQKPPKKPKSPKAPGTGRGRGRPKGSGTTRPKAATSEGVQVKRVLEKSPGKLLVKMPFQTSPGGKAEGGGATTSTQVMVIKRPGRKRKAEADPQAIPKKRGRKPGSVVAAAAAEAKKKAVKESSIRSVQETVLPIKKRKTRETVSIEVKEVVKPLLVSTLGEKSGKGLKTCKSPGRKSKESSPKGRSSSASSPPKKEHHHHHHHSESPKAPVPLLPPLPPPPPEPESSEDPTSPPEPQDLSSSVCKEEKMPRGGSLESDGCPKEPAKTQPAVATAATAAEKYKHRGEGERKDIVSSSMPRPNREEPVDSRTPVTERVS

B1: 20 bp mC (dsDNA)
DNA 1: ACTACCATCCGGACCAGAAG
DNA 2: CTTCTGGTCCGGATGGTAGT
modifications: 5mC at position 10 of strand 1 and position 10 of strand 2 (printed as X)
binding result: binds
